B1: phage P4 polarity suppression protein Psu, wild-type (Psu^wt), purified (natural protein)
chain: MESTALQQAFDTCQNNKAAWLQRKNELAAAEQEYLRLLSGEGRNVSRLDELRNIIEVRKWQVNQAAGRYIRSHEAVQHISIRDRLNDFMQQHGTALAAALAPELMGYSELTAIARNCAIQRATDALREALLSWLAKGEKINYSAQDSDILTTIGFRPDVASVDDSREKFTPAQNMIFSRKSAQLASRQSV
B2: Psu variant R43A (Psu^R43A), purified (natural protein)
chain: MESTALQQAFDTCQNNKAAWLQRKNELAAAEQEYLRLLSGEGANVSRLDELRNIIEVRKWQVNQAAGRYIRSHEAVQHISIRDRLNDFMQQHGTALAAALAPELMGYSELTAIARNCAIQRATDALREALLSWLAKGEKINYSAQDSDILTTIGFRPDVASVDDSREKFTPAQNMIFSRKSAQLASRQSV

How the values were obtained:
cryo-EM structure = biological target: the molecule itself; test: cryo-EM structure
[1] = biological target: T1, transcription termination factor ρ variant P167L (ρ^P167L), purified (E. coli, UniProt P0AG30, P167L); test: stopped-flow/FRET
[2] = biological target: T1, transcription termination factor ρ …; test: SEC

Binder	stoichiometry N (cryo-EM structure)	binding result [1]	binding result [2]
B1	2	binds	–
B2	–	–	binds
